Earlier results, collected in article PMC7380111.

Experiments:
[1] = molecular target: NRP1 (Homo sapiens) (UniProt O14786)
[2] = molecular target: NRP2 (Homo sapiens) (UniProt O60462)
UniProt O60462, sequence (O60462 21-931): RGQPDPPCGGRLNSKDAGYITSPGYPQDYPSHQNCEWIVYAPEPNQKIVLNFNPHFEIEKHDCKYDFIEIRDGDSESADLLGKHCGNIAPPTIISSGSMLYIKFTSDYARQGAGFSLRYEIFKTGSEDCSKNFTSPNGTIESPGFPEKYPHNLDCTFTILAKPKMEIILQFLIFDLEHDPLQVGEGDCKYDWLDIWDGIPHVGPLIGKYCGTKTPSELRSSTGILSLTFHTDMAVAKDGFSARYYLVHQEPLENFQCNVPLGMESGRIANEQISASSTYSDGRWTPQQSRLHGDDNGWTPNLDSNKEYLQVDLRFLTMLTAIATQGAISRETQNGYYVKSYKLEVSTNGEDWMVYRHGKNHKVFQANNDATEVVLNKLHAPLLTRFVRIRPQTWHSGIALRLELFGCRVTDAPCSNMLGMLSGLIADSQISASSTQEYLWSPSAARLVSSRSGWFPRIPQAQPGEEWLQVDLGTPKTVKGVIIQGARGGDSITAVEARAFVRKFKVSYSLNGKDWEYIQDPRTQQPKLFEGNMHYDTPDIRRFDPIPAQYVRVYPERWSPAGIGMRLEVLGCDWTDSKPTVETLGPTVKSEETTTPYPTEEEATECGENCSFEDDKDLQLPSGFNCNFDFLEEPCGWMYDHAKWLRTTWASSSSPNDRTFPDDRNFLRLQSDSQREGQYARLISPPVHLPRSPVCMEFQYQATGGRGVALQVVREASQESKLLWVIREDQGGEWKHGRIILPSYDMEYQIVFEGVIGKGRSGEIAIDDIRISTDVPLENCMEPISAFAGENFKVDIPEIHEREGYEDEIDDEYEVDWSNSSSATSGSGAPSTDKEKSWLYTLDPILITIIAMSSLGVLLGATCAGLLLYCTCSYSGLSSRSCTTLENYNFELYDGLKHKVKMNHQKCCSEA

UniProt O14786, sequence (O14786 22-923): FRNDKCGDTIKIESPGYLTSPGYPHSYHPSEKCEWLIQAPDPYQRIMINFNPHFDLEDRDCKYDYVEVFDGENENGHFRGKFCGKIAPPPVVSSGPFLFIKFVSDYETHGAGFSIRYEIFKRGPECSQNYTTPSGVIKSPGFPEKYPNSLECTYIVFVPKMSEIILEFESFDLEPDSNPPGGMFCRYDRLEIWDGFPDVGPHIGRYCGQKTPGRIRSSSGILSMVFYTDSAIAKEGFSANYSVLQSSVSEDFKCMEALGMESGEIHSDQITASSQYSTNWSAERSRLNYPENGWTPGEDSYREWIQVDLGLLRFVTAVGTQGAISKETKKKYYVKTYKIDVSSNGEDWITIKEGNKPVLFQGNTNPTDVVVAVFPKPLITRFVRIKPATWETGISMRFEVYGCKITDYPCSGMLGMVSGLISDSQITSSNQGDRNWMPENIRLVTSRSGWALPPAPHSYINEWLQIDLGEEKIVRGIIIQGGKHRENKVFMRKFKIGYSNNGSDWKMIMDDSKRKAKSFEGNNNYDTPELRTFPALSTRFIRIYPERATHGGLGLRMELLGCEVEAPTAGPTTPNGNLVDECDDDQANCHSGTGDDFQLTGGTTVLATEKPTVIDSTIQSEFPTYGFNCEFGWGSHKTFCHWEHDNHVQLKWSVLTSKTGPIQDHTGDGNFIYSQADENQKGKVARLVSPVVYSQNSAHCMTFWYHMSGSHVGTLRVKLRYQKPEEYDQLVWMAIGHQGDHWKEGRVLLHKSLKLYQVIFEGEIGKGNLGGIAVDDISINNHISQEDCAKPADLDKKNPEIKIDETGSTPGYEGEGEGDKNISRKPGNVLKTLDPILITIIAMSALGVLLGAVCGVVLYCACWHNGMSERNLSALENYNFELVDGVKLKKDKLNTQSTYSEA

Kd [1]: 0.2 nM
Kd [2]: 5 nM
Substance: VEGF165 (from UniProt P15692)
